Results on 1 substance are retold here after US20150104388A1.

This assay has as its target PAC1 receptor (human) (UniProt P41586). Description: cell-based or functional assay.

Chain of PAC1 receptor (human) (P41586 21-468): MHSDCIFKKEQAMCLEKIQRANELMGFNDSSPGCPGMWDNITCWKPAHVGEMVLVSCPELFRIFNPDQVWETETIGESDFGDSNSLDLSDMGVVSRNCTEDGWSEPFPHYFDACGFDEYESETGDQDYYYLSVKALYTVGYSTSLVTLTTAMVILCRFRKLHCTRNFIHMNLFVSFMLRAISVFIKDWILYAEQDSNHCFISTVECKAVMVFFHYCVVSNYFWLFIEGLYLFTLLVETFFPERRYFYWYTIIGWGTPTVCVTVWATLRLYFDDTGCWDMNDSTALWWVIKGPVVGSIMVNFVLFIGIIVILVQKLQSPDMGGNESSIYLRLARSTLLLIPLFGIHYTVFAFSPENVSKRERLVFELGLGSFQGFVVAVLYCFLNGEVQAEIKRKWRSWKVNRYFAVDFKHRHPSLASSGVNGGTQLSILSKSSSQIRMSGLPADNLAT

Take “PACAP38 analog with nipecotic acid in position 3 (peptide)”: the fold lower potency as inhibitor of multiple myeloma cell proliferation, against the corresponding analog with pipecolic acid in position 3 is 10000 fold.
